{"source": "paper doi:10.1101/2022.06.04.494841", "target": "MoFe-protein (molybdenum iron protein of the MoFe-nitrogenase) from Azotobacter vinelandii (Azotobacter vinelandii) (UniProt P07328)", "sequence (P07328 whole entry, chain 1 of 2)": "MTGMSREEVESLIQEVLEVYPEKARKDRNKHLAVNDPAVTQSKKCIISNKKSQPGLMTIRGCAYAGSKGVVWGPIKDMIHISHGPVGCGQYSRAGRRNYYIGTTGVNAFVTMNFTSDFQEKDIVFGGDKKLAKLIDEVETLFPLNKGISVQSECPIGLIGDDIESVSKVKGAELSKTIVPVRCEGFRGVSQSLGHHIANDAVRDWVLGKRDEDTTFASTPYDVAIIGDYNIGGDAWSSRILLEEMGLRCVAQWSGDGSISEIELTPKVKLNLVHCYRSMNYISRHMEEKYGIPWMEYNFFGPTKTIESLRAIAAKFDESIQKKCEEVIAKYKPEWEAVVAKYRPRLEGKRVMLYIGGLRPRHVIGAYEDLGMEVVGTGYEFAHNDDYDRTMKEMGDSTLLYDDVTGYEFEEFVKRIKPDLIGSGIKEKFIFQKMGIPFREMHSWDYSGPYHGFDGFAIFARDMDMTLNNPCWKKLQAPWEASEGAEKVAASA", "sequence (P07329 whole entry, chain 2 of 2, further chain)": "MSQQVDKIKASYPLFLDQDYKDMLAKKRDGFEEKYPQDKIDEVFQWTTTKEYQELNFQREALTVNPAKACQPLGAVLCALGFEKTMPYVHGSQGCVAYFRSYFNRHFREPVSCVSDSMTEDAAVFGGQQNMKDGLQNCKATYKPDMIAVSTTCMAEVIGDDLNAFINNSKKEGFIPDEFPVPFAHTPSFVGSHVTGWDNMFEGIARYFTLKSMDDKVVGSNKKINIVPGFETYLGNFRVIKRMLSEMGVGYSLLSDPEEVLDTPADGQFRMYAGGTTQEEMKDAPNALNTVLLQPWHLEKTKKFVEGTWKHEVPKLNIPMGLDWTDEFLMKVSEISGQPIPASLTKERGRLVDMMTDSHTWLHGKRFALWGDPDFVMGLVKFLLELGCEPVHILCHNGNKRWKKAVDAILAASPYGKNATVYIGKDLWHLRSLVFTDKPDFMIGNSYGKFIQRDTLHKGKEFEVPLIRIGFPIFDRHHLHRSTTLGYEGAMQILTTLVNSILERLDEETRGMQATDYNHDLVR", "experiment": "cryo-EM structure", "note": "Values joined by “and” are separate entries in the source; they are usually repeats but may differ in a detail not shown here. Equal values may be shown once.", "data": [{"substance": "Fe-protein (iron protein of the MoFe-nitrogenase) from Azotobacter vinelandii (enzyme)", "values": [{"measurement": "stoichiometry N (Fe-protein per MoFe-protein)", "result": "2 and 1"}]}]}
